# According to PMC11488486:
# Experiments:
# [1] = target: UCHL1, wild type (from pGEX-6p-1) (human) (UniProt P09936)
# [2] = target: UCHL1 R178Q (from pGEX-6p-1) (human) (UniProt P09936)
substance,measurement,setting,value
Ub-Rhodamine,KM of UCHL1-catalyzed hydrolysis of Ub-Rho (Michaelis-Menten kinetics),[1],0.03 µM
same,KM of UCHL1-catalyzed hydrolysis of Ub-Rho (Michaelis-Menten kinetics),[2],0.17 µM
